Measurements published in article PMC11609053.

Legend:
[1] = biological target: T1, SCAB_Lrp (Streptomyces scabies 87.22?) (UniProt C9ZB67); experiment: EMSA; settings: 20 uL: 50 ng biotin-labelled probe, 0-400 nM protein, 2 uL binding buffer (Liu et al. 2023; composition, pH and temperature not given), chemiluminescent …
T1 sequence: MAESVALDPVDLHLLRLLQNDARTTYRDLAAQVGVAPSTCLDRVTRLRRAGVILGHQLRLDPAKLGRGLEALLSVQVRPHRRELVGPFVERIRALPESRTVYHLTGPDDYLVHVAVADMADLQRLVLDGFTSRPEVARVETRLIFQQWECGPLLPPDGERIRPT

[2] = biological target: T2, SCAB_Lrp2 (Streptomyces scabies 87.22) (UniProt C9Z7M0); experiment: EMSA; settings: 20 uL: 50 ng biotin-labelled probe, 0-400 nM protein, 2 uL binding buffer (Liu et al. 2023; composition, pH and temperature not given), chemiluminescent …
T2 sequence: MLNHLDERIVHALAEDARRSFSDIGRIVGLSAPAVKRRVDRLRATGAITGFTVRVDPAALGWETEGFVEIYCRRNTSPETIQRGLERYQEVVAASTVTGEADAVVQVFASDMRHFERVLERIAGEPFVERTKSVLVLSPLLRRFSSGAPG

| Sequence | binding [1] | binding [2] |
| --- | --- | --- |
| GTCGTCTTCGGCGTCTGGATGGCCGCCGGGCTCGTGTTCTACTTCAGTTACGGCCACCGGCGCTCGCGTCTGGCTGCGGCCCCGGCCCCCGCCGACCCCACGTCCCCGCCGGCTCCCCCGTCCACGTCCCCGTCGACTCCAGAGAAGTGATCCACCCGCAGTGCTGAACCATCTCGACGA (double strand) [P75421] | binds | binds |
| AAGGCAGTACCTTGCGCTCGGCGCGTCGGCCGGAAATCGAGTGAAGCAAGATGCTTCCCCCTTCTCGGCTCCGAGCGCGACAAACAGTTCAGAACAGGCCACGGCGAGATCCTCCGCAAGGAACGAACCCAGTCGTTCACCCGCTTAGTTTGATTGAAATTTCAACTACCAGGTCAATCG (double strand) [PtxtR] |  | binds |
